# T1: FUS (Homo sapiens, UniProt P35637)
# T1 construct: made in house; host or cells: SF9-ESF insect cells (baculovirus) for the unlabelled FUS
# T1 sequence (P35637 1-526): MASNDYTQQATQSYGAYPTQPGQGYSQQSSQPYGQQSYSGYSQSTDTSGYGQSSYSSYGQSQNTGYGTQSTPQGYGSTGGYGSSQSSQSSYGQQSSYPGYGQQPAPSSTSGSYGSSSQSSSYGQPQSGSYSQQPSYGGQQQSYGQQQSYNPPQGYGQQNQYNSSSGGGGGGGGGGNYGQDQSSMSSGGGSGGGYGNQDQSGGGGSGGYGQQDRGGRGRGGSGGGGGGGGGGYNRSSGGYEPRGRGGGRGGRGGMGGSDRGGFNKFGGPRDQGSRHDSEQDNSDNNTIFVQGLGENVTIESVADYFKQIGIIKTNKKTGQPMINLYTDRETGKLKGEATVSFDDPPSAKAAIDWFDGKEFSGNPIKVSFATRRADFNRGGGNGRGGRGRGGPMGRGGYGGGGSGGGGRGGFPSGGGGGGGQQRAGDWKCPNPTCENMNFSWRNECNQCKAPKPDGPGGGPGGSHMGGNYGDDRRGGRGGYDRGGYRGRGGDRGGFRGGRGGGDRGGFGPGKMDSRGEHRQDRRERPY
# B1: PGL-3: protein component of P granules in the germline of C. elegans; spiked with 5% PGL-3::GFP (protein, UniProt G5EBV6 1-693, looked up)
# Guanyl-specific ribonuclease …: MEANKRQIVEVDGIKSYFFPHLAHYLASNDELLVNNIAQANKLAAFVLGATDKRPSNEEIAEMILPNDSSAYVLAAGMDVCLILGDDFRPKFDSGAEKLSQLGQAHDLAPIIDDEKKISMLARKTKLKKSNDAKILQVLLKVLGAEEAEEKFVELSELSSALDLDFDVYVLAKLLGFASEELQEEIEIIRDNVTDAFEACKPLLKKLMIEGPKIDSVDPFTQLLLTPQEESIEKAVSHIVARFEEASAVEDDESLVLKSQLGYQLIFLVVRSLADGKRDASRTIQSLMPSSVRAEVFPGLQRSVFKSAVFLASHIIQVFLGSMKSFEDWAFVGLAEDLESTWRRRAIAELLKKFRISVLEQCFSQPIPLLPQSELNNETVIENVNNALQFALWITEFYGSESEKKSLNQLQFLSPKSKNLLVDSFKKFAQGLDSKDHVNRIIESLEKSSSSEPSATAKQTTTSNGPTTVSTAAQVVTVEKMPFSRQTIPCEGTDLANVLNSAKIIGESVTVAAHDVIPEKLNAEKNDNTPSTASPVQFSSDGWDSPTKSVALPPKISTLEEEQEEDTTITKVSPQPQERTGTAWGSGDATPVPLATPVNEYKVSGFGAAPVASGFGQFASSNGTSGRGSYGGGRGGDRGGRGAYGGDRGRGGSGDGSRGYRGGDRGGRGSYGEGSRGYQGGRAGFFGGSRGGS
# modifications: spiked with 5% PGL-3::GFP
# notes: protein component of P granules in the germline of C. elegans; spiked with 5% PGL-3::GFP
# B2: poly(A) RNA: Poly(A) RNA (SEQ ID No: 3) added to FUS-GFP at a fixed molar ratio (nucleic acid)
# chain: AAAAAAAAAAAAAAAAAAAAAAAAAAAAAAAAAAAAAAAAAAAAAAAAAAAAAAAAAAAAAAAAAAAAAAAAAAAAAAAAAAAAAAAAAAAAAAAAAAAAAAAAAAAAAAAAAAAAAAAAAAAAAAAAAAAAAAAAAAAAAAAAAAAAAAAAAAAAAAAAAAAAAAAAAAAAAAAAAAAAAAAAAAAAAAAAAAAAAAAAAAAAAAAAAAAAAAAAAAAAAAAAAAAAAAAAAAAAAAAAAAAAAAAAAA
# modifications: misc_feature 1..250 Poly(A) RNA
# Tests used:
# Assay type in all cases: physicochemical
# [1] = molecular target: T1, FUS; assay: Effect of a small molecule drug on the phase diagram (binodal) of FUS, inPhase method; details: compared to untreated control (DMSO); temperature phase diagram, FIG. 9
# Source text: • 1. Measure the protein concentration of the stock solutions. The stock solutions can be unlabelled, a mix of labelled and unlabelled or fully labelled protein. Solutions containing only unlabelled protein will be detected using brightfield (or phase-contrast, DIC, etc.) while the mixes that contain labelled protein can be also detected with fluorescence means. • 2. Make a titration series of the protein solution. • 3. Trigger phase separation of the protein samples. Phase separation can be triggered for example by a change in salt, pH or temperature. • 4. Immediately after triggering phase separation, encapsulate in a water-in-oil system (e.g. PicoSurf oil (Sphere Fluidics, UK)). • 5. Centrifugation after encapsulation is optional but helps in the segmentation of the condensates. This is because the centrifugation coarsens the condensates. • 6. Load the titration series into chambers for microscopy imaging. […] Now the ratio condensate over emulsion droplet volume which is the volume fraction can be determined. In case of fluorescently labelled proteins the determination of the condensate volume can be complemented by fluorescence microscopy. • 8. Perform the image and segmentation analysis and fit the measured volume-fractions to a linear regression over the protein concentrations. • 9. […]
# [2] = Partition factor derived from inPhase phase diagrams (water-in-oil emulsions); details: range over the tested temperatures and salt (KCl) concentrations, FIG. 15a
# Source text: Partition factor and comparison to fluorescence-based quantification. The partition factor (PF) is often used in condensate research to characterise the up-concentration of protein in the condensed phase. It can be defined by the ratio of the condensed-over dilute-phase concentration (PF=ccon/cdil). In the condensate field it is common to determine the partition factor by comparing fluorescence intensity inside the condensate against the intensity in the dilute phase. In contrast, our method allows us to directly determine the partition factor by using the presented phase diagrams (FIG. 13 and FIG. 14).
# • 1. Measure the protein concentration of the stock solutions. The stock solutions can be unlabelled, a mix of labelled and unlabelled or fully labelled protein. Solutions containing only unlabelled protein will be detected using brightfield (or phase-contrast, DIC, etc.) while the mixes that contain labelled protein can be also detected with fluorescence means. • 2. […] Now the ratio condensate over emulsion droplet volume which is the volume fraction can be determined. In case of fluorescently labelled proteins the determination of the condensate volume can be complemented by fluorescence microscopy. • 8. Perform the image and segmentation analysis and fit the measured volume-fractions to a linear regression over the protein concentrations. • 9. […]
# [3] = molecular target: T2, FUS-GFP (Homo sapiens, UniProt P35637); assay: Effect of RNA on protein phase separation (poly(A) RNA : FUS-GFP at fixed molar ratio); details: titration of total protein concentration at constant poly(A) RNA to protein ratio, FIG. 16
# T2 construct: made in house; the listing says 'purified from BAC construct')
# Description: FUS-GFP containing samples were prepared as described in Example 1. Phase separation was triggered by simultaneously lowering the salt concentration of the sample and adding the Poly(A) RNA in an amount to maintain a fixed molar ratio of Poly(A):FUS-GFP. The volume fraction of the condensed phase was determined as described in Example 1 and cdil and ccon, were determined, wherein ccon represents an apparent concentration containing both Poly(A) (SEQ ID No: 3) and FUS-GFP concentration. The concentration of the single components of the sample can be resolved by the knowledge of the molar ratio of RNA to protein in the condensed phase (FIG. 16).
molecule,measurement,setting,value
NC(=O)CCCCC1CCSS1 (stereo not drawn) [Lipoamide],effect on the phase behavior of FUS (condensed phase branch of the binodal),[1],reduced amount of conformational changes at higher temperatures
B1,partition factor (PF=ccon/cdil),[2],10^1-10^3
B2,effect of increasing the RNA to protein ratio on cdil,[3],reduces cdil

# Source: US20250347697A1, “Accurate Method for Generating a Phase Diagram of a Polymer” (MAX-PLANCK-GESELLSCHAFT ZUR FÖRDERUNG DER WISSENSCHAFTEN …, priority 2022, published 2025)
